From US20040018972A1 (TRILLIUM THERAPEUTICS, published 2004)

Columns and labels:
[1] = biological target: T1, CD14 on mouse dendritic cells (mouse, UniProt P10810 16-336); assay: co-capping on DC: anti-CD14 staining reduced after capping of MD-1 with SH1.2.47 (FACS)
T1 construct: whole, on cells
T1 sequence (looked up): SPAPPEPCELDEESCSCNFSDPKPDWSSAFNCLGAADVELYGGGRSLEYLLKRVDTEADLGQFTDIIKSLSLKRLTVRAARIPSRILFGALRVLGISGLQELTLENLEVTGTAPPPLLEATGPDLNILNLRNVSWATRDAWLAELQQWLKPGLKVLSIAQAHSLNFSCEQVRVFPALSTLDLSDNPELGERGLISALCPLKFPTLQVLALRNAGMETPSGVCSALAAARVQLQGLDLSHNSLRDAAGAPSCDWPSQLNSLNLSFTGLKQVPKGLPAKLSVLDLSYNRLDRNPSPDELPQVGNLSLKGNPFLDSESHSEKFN
Method: (§1) FIG. 3 is FACS analysis of the effect of pretreatment of DC with anti-MD-1 antibody on cell surface expression of molecules on dendritic cells. Cells in the columns shown were preincubated (60 minutes at 4° C.) in medium, rat anti-DC26, or anti-MD-1 (SH1.2.47), prior to washing and incubation at 37° C. with anti-rat Ig. Thereafter cells were stained with different mAbs as in FIG. 2.

[2] = biological target: T2, OX-2 (CD200) on mouse dendritic cells (mouse, UniProt O54901 31-278); assay: co-capping: DC pre-incubated with SH1.2.47 and anti-rat Ig at 37 C, then FACS staining of the other surface molecules
T2 construct: whole, on cells
T2 sequence (looked up): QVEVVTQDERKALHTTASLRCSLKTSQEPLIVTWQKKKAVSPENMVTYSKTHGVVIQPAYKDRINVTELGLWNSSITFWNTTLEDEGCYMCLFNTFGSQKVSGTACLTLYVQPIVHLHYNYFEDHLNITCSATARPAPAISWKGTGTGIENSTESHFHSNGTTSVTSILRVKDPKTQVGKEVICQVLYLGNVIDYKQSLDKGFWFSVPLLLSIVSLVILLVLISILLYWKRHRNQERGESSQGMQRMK
Method: as §1

[3] = biological target: T3, DEC205 on mouse dendritic cells (mouse, UniProt Q60767 28-1723); assay: as above
T3 construct: whole, on cells
Method: as §1

[4] = biological target: T4, CD80 (B7-1) on mouse dendritic cells (mouse, UniProt Q00609 38-306); assay: as above
T4 construct: whole, on cells
T4 sequence (looked up): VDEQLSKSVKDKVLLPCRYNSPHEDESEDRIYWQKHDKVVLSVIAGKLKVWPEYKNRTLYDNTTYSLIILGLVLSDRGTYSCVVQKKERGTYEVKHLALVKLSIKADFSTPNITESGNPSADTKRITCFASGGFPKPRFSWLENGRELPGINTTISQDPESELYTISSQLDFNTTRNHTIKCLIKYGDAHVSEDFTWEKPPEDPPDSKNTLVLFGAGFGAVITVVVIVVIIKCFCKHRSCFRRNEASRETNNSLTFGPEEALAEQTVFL
Method: as §1

[5] = biological target: T5, CD86 (B7-2) on mouse dendritic cells (mouse, UniProt P42082 24-309); assay: as above
T5 construct: whole, on cells
T5 sequence (looked up): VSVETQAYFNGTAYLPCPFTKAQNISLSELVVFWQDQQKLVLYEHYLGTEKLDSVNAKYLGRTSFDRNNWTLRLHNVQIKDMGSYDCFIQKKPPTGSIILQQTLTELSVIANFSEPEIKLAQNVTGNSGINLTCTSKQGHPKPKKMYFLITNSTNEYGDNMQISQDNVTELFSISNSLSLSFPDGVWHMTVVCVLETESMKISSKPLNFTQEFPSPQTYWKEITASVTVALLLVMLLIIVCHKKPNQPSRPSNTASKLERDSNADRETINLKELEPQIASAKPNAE
Method: as §1

T3 sequence (Q60767 28-1723): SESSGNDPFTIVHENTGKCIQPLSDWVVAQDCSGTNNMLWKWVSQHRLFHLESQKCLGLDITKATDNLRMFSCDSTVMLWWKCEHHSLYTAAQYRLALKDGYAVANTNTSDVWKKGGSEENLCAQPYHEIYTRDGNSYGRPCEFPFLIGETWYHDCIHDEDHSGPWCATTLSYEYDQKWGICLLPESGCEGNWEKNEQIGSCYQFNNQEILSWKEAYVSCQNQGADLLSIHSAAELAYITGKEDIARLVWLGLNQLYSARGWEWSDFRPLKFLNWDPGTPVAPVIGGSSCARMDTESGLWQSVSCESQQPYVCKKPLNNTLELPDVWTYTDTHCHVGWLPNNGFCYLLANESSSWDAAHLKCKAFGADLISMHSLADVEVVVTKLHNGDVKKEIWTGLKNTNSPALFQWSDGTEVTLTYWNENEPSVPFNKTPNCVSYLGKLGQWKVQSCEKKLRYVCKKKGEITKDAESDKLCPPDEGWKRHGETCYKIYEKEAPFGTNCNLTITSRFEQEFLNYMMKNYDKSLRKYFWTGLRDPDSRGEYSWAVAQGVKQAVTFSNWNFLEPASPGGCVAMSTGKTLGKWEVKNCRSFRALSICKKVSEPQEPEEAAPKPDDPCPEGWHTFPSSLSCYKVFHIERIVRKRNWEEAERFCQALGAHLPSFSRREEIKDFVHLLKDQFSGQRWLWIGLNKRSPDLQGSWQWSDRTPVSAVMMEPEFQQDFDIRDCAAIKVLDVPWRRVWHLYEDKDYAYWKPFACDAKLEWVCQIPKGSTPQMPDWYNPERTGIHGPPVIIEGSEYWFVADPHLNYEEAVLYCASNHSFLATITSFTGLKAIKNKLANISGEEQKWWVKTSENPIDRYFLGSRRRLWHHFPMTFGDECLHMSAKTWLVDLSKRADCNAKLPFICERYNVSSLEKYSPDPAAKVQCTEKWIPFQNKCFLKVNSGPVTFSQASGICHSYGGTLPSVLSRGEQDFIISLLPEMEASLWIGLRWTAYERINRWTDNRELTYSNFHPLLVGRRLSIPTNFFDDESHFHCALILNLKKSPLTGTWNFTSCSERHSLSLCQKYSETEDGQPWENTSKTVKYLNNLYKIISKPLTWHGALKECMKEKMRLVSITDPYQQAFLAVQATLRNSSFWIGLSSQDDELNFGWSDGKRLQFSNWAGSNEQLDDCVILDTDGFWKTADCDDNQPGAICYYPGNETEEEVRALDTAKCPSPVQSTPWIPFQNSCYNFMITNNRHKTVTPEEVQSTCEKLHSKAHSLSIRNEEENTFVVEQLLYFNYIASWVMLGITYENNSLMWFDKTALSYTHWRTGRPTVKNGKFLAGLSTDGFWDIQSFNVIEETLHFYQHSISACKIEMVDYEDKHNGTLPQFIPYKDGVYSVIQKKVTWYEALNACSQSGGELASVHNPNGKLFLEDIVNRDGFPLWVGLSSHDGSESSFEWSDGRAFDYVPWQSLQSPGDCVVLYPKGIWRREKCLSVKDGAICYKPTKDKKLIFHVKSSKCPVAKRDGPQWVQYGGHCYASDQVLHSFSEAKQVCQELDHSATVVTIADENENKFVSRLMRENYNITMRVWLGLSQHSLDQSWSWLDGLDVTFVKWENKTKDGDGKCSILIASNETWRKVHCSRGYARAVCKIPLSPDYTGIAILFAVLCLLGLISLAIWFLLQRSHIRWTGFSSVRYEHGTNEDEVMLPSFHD

B1: murine MD-1 (other, UniProt O88188 20-162, looked up)
chain: DHGSENGWPKHTACNSGGLEVVYQSCDPLQDFGLSIDQCSKQIQSNLNIRFGIILRQDIRKLFLDITLMAKGSSILNYSYPLCEEDQPKFSFCGRRKGEQIYYAGPVNNPGLDVPQGEYQLLLELYNENRATVACANATVTSS
notes: whole, on cells; also called mouse MD-1
B1: binds [1]; no binding [2]; no binding [3]. B1: no binding [4]; no binding [5].
